Assay: In vivo HA degradation tracked by Alexa Fluor 700 fluorescent signal (IVIS) in ischemic hindlimb
Set-up: species or system mice
Conditions: streptavidin alone injected into the hindlimb
Method: Biotinylated HA was suspended in deionized water overnight, and Alexa Fluor 700-conjugated streptavidin (Invitrogen, Grand Island, N.Y., USA) was prepared according to the manufacturer's instructions. The streptavidin and biotinylated HA were then mixed and gently agitated at 4° C. This mixture was filtered through Amicon centrifugal filter units (molecular-weight cut off 100 kDa; Millipore, Billerica, Mass., USA) to exclude extra streptavidin. The final products were freeze-dried and stored at 4° C.
hMSCs were cultured on 10-cm culture dishes and maintained at 37° C. under an atmosphere of 5% CO2 in air. A total of 4×10^6 hMSCs were mixed with 200 μl of αMEM culture medium or 1% HA and then injected into the ischemic muscles of mice. Immediately and at various intervals after the injection, the mice were imaged using a Xenogen IVIS® Spectrum device and the corresponding filter sets. The fluorescent intensity was determined by calculating the number of photons within the manually drawn ROI, and the intensity was adjusted to exclude tissue autofluorescence. […]

For “Alexa Fluor 700 labeled streptavidin: Alexa Fluor 700-conjugated streptavidin (Invitrogen), injected alone as label control”, the “time until fluorescence disappeared” value was at most 12 h.
